B1: HDV Ribozyme (parent)
chain: GGCCGGCAUGGUCCCAGCCUCCUCGCUGGCGCCGGCUGGGCAACAUUCCGAGGGGACCGUCCCCUCGGUAAUGGCGAAUGGGACCCA

The variants in the data set derive from B1. Nature of the data set: self-cleavage, relative activity (ratio to wild type); higher = more cleavage; co-transcriptional.
Take A8U C86A: the self-cleavage was determined as 0.997. The value for A8G was 1.02; that for A8U was 0.863. The value for A8U U37A was 0.201; that for A8U U37C was 0.87; that for A8U G81A was 0.148.

Take A8U G81C: the self-cleavage was 0.115. The value for A8U C15G was 0.277.

As for A8U C15A, the self-cleavage was 0.369. On to A8U C22U, for which the self-cleavage worked out at 0.598.

Consider A8U C22G, for which the self-cleavage stood at 0.19. In the case of A8U G52A, the self-cleavage is 0.692. To A8U G52U belongs 0.872; to A8U G31C, 0.115; to A8U A87U, 0.963. To A8U G82C belongs 0.0923; to A8U G82U, 0.185; to A8G G59A, 0.743. Regarding A8U G74C, the self-cleavage amounted to 0.166. To A8U G80A belongs 0.227; to A8G C49G, 1.27; to A8G C49U, 0.692. For A8G C14U, the self-cleavage was determined as 0.997. In the case of A8G C14A, the self-cleavage was 0.0791. To U9A A78C belongs 0.359; to U9A A78U, 0.332. In the case of U9A A78G, the self-cleavage came out at 1.04. For the variant A8U U72A, the self-cleavage was found to be 0.369. To A8U U72G belongs 0.289; to A8U U72C, 0.443; to A8G C21G, 0.0536. The value for A8G C21U was 0.201; that for A8U A56U was 0.705; that for A8U A56C was 1.25. To A8U A56G belongs 0.957; to U9A A42C, 0.252. With U9A A42G, the self-cleavage was 0.361. The value for A8G G38C was 0.138. For the variant A8C G74U, the self-cleavage was found to be 0.475.

For the variant A8C G74C, the self-cleavage came to 0.269. Consider A8U G53A, for which the self-cleavage amounted to 0.665. The value for A8U G53U was 0.867. To A8U C49U belongs 0.739. To A8U C49G belongs 0.76. For A8U C49A, the self-cleavage worked out at 1.13. To A8C G76A belongs 0.95.

For the variant A8C G76U, the self-cleavage amounted to 0.785. To A8G C22A belongs 0.101; to A8U U79C, 0.177. To U9A C30G belongs 0.138.

U9A C30U: the self-cleavage was 0.776. To U9A C30A belongs 0.732; to A8C U12C, 0.208. To A8C U12G belongs 0.831; to A8U G76C, 0.965; to A8G C33G, 0.0755. The value for A8U G17C was 0.0755; that for A8C U27C was 0.739. With A8C U27G, the self-cleavage came out at 0.88. Regarding A8G A70U, the self-cleavage was found to be 0.831. Turning to A8G A70G, the self-cleavage stood at 1.09. The value for A8U U20A was 0.166; that for A8U U20C was 0. The value for A8G U12A was 0; that for A8G U12C was 0.151; that for A8G G39U was 0.54. The value for A8G G39A was 0.302; that for A8U U46A was 0.415. A8U U46C: the self-cleavage was found to be 0.554. To A8U G40U belongs 0.415; to A8U G40C, 0.234. As to A8G C24A, the self-cleavage was 0.762. To A8G C24U belongs 0.665; to A8G C24G, 0.0639; to U9A C33G, 0.0692. The value for U9A C33A was 0.185; that for U9A C33U was 0.808; that for A8U C14U was 0.864.

Take U9A C49U: the self-cleavage is 0.831. As to A8C U9C, the self-cleavage is 0.962. The value for A8C U9G was 0.692; that for A8C U9A was 0.755; that for A8G C36G was 0.104. On to A8G A42U, for which the self-cleavage was found to be 0.317.

Consider A8G A42G, for which the self-cleavage was determined as 0.68. The value for A8U C18A was 0.0554; that for A8U C18G was 0.172; that for A8U C18U was 0.631. To A8G A45U belongs 0.692. The value for A8G A45C was 0.332; that for A8U U12G was 0.594. A8U U12A: the self-cleavage amounted to 0.208.

Turning to A8C G68U, the self-cleavage stood at 0.943. The value for A8C G68A was 0.554; that for A8U U47A was 0.767; that for A8C G81C was 0.166. The value for A8C G81U was 0.201. To A8G G82A belongs 0.237.

With A8C U69G, the self-cleavage is 0.712. A8C U69A: the self-cleavage was found to be 0.688. The value for A8U C57U was 0.91; that for A8C G82A was 0.172; that for A8U C75A was 0.

Turning to A8U C75U, the self-cleavage came to 0.298. To A8U U60G belongs 0.89. As for A8U U60C, the self-cleavage came to 0.492.

As for A8U C13U, the self-cleavage amounted to 0.302. As for A8G C86G, the self-cleavage is 1.23.

For A8G C86A, the self-cleavage came to 1.15. In the case of A8U C26A, the self-cleavage turned out to be 0.997. The value for A8U C26G was 1.03; that for A8U C26U was 0.86. The value for A8G G11A was 0.196; that for A8G A71U was 0.902. To A8G A71C belongs 0.447. In the case of A8G A71G, the self-cleavage was 0.739. Turning to A8U G25U, the self-cleavage turned out to be 0.106. The value for A8G G68U was 0.855; that for A8G G80U was 0.173; that for A8U A45C was 0.166.

For A8U G38A, the self-cleavage came to 0.141. The value for A8U G38U was 0.326; that for A8U G38C was 0.095. To A8G U60C belongs 1.16; to U9A A71G, 0.506. Take U9A A71U: the self-cleavage turned out to be 0.688. To A8U C30U belongs 0.529. To A8U C30A belongs 0.299; to A8G A77U, 0.0978; to A8G A77G, 0.867. A8U G73U: the self-cleavage worked out at 0.199. The value for A8U G73C was 0.0831; that for A8U G73A was 0.323.

Regarding A8U G29A, the self-cleavage came out at 0.0852.

For the variant A8U G29U, the self-cleavage was found to be 0.0437. To U9A C41U belongs 1.07; to U9A C41G, 0.831; to A8G C19A, 0.107. The value for A8G U9C was 1.11; that for A8G U9A was 0.506; that for A8C G73C was 0.115. The value for A8U C33A was 0.185. Regarding A8U C61G, the self-cleavage was determined as 0.623.

A8U G10U: the self-cleavage is 0.341. For A8U G10A, the self-cleavage came out at 0.684. For the variant A8G C61U, the self-cleavage came out at 0.982. The value for A8U G39A was 0.318; that for A8U U9A was 0.63. The value for A8U U9C was 0.906; that for A8G C48G was 1.11; that for A8G C48U was 1.26. To A8G C48A belongs 1.07; to A8G U72A, 0.554; to A8G U72C, 0.293.

Take A8G G67A: the self-cleavage was 0.755. The value for A8G U37C was 1.22; that for A8U C64A was 0.538. In the case of A8U C48A, the self-cleavage turned out to be 0.875. To A8U C48G belongs 1.25; to U9A C22U, 0.831; to U9A C22A, 0.388.

As for A8G C58A, the self-cleavage is 1.07. As for A8G C58G, the self-cleavage was 0.895. To A8G C58U belongs 0.962. As to A8G A16G, the self-cleavage amounted to 1.14. Regarding A8G C41A, the self-cleavage stood at 0.914.

For the variant A8G G50U, the self-cleavage turned out to be 0.984.
